Assay results: publication PMC6018088

Assays:
[1] = biological target: T1, Fur (Vibrio cholerae O1 El Tor C7258?) (UniProt P0C6C8); experiment: DNase I footprinting; settings: DNase I footprinting with FAM/HEX-labeled probes and RQ1 DNase I; buffer, salt, pH and temperature not given (cites earlier work)
T1 sequence: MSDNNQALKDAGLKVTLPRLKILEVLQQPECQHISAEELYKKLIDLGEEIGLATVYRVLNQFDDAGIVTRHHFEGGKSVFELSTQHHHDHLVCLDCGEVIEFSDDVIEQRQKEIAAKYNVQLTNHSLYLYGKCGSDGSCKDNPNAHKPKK

[2] = biological target: T2, HapR (Vibrio cholerae O1 El Tor C7258?) (UniProt Q4F6W7); experiment: DNase I footprinting; settings: […]; buffer, pH and temperature not given ([…]
T2 sequence: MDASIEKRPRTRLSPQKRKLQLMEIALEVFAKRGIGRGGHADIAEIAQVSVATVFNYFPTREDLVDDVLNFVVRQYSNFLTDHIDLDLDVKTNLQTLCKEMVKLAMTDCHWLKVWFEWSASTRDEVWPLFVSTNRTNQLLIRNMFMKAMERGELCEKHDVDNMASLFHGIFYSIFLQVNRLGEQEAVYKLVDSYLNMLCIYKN

## GTAAAACGACGGCCAGTCTTATGTGTAAGCGTATTGAAATCTTTAGAGTTAAAATGGAGAACTTAACTTTTTTTAAATTATTCAATTAATCTTTAAATCAACCTTATAAATTAATTCAGACTAAATTAGTTCAAATTAAATTAGGCTCATTAAATAATATGAATATCAGTAATTGTTATTTTAGGAAGAAATTATTTTACAGCAAATAAAAAGTCTTTAGAGGCTAAAATCTGTGATCCGGTCATAGCTGTTTCCTG (double strand) [hlyA promoter fragment]
[1]
  binding: binds
[2]
  binding: binds
